We go through 78 sequences from the supplement of paper PMC10126150.

± gives the standard deviation of the averaged measurements.
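Note: ATP exposure 15 min at 22 °C before imaging.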

The test system of this series is ATP. Kind of series: switch fluorescence ratio, 500 uM ATP over buffer (Cy3 cluster intensity, sum of 5 cycles each) (fold (ratio)); higher = stronger signal-on switching upon ATP binding; sequences stand for … in TCGTCGGCAGCGTCAGATGTGTATAAGAGACAGTTTTTTTTTTTTTTTTTTTTTTTTT…TC. The conditions noted are these: aptamer strand: ATP DNA aptamer (quencher-CACCTGGGGGAGTATTGCGGAGGAAGG + anchor), 100 nM annealed; ATP concentration: 500 uM. In short, it runs like this: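 Cy3-labelled switching-strand clusters on a modified Illumina MiSeq flow-cell were annealed to 100 nM quencher-labelled ATP aptamer and imaged first in selection buffer, then after 15 min with 500 uM ATP at 22 °C. NaOH stripping and re-annealing separated each of five buffer/ATP cycles, and clusters outside 100-1000 RFU were excluded. The fluorescence ratio sums target-cycle Cy3 intensity over buffer-cycle Cy3 intensity per cluster and averages it per switch-domain sequence.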
Turning to GTAAAAAGAG, the switch fluorescence ratio turned out to be 1 ± 0.011.

With TGCTATAGAG, the switch fluorescence ratio turned out to be 1.048 ± 0.0012. Take CTTATAGACT: the switch fluorescence ratio was determined as 1.01 ± 0.011. ATTGGGTTCT: the switch fluorescence ratio was found to be 0.991 ± 0.057. The same measure for AGGCGGATGG: 0.9853 ± 0.0062; for TCGGTTGAAC: 1.01 ± 0.031; for GGTCGAAAAC: 1.06 ± 0.11. The same measure for CTGATTCGGT: 0.9889 ± 0.0027. For ATAAAGGTCT, the switch fluorescence ratio amounted to 0.984 ± 0.0053. For TTCACTGATG, the switch fluorescence ratio came to 1.05 ± 0.017. In the case of GCAGTTAATC, the switch fluorescence ratio was determined as 1.05 ± 0.026. ACGGGCAAGC: the switch fluorescence ratio is 1.72 ± 0.23. The same measure for TAGCTGGGGA: 1.01 ± 0.033; for TGTCCGGGGG: 0.994 ± 0.029. In the case of CTAAGCCCGG, the switch fluorescence ratio was 1 ± 0.011.

Turning to TAGCCTTACG, the switch fluorescence ratio stood at 1.123 ± 0.0043. For the sequence AGACTCGCCC, the switch fluorescence ratio amounted to 1.12 ± 0.059. Consider TAGGGAATAG, for which the switch fluorescence ratio was 1.14 ± 0.12. With GCAAGTTGGT the figure was 1 ± 0.017. With ATACTGTCGC the figure was 1.0874 ± 0.0002; with CGGGTATGGA, 1.02 ± 0.033; with TGAAAATACC, 1.011 ± 0.01. With CTGGTTTCGG, the switch fluorescence ratio was determined as 0.993 ± 0.022. With TTCGGCGCCA the figure was 1.03 ± 0.013; with ACACTTGTTG, 0.963 ± 0.028; with TTCAACTTTT, 1.01 ± 0.056.

As for GGAGAAGAGT, the switch fluorescence ratio was found to be 1.04 ± 0.015.

As to GTTCCTGGGG, the switch fluorescence ratio was 1.03 ± 0.019. With TTCACTAGTG, the switch fluorescence ratio was 1.02 ± 0.035. With TTGTTCGCCT, the switch fluorescence ratio came out at 1.02 ± 0.011. With CGGCGTCGGG the figure was 1 ± 0.032; with TCATTGGGTT, 0.977 ± 0.026. The same measure for TCGGGCTTTT: 0.969 ± 0.026. Consider CTGAACTGTG, for which the switch fluorescence ratio stood at 0.989 ± 0.11. For the sequence TTGGTGACCG, the switch fluorescence ratio was determined as 1.03 ± 0.036. The same measure for GCAGGAGGAA: 0.991 ± 0.02. With TTTCATTACT the figure was 1.04 ± 0.065; with GCTTTTGGGT, 1 ± 0.025. As for GGGCGCCTGC, the switch fluorescence ratio turned out to be 0.9942 ± 0.0065. The same measure for CGTTATTGGC: 1.02 ± 0.034; for AAACGGGCTA: 1.03 ± 0.039. The same measure for AGGATCTTGT: 0.9943 ± 0.0016; for AATATCTCTG: 1.02 ± 0.03; for CATTCTACTG: 1.04 ± 0.021. With GGTAAGGGTT the figure was 0.9866 ± 0.0081; with TTGTAACATT, 1.015 ± 0.0014. For the sequence AAATTTTTCT, the switch fluorescence ratio was found to be 1.05 ± 0.07. The same measure for AGGGGGGAC: 0.9875 ± 0.0048. As to CCGCTTGAGA, the switch fluorescence ratio came out at 1.08 ± 0.025.

In the case of ACCATCGGGA, the switch fluorescence ratio was 1.01 ± 0.016. Take ATGGAAGTG: the switch fluorescence ratio worked out at 1.001 ± 0.0015. The same measure for TTATGGACCT: 1.331 ± 0.0094; for GAGGAGGGGG: 0.986 ± 0.032; for AACGGCTCTT: 1.03 ± 0.074. For ATGGTGCAGG, the switch fluorescence ratio worked out at 1.06 ± 0.011.

Take TTTTAGGAAG: the switch fluorescence ratio stood at 0.9937 ± 0.0097. Turning to GCGTGACGGC, the switch fluorescence ratio came to 0.981 ± 0.033. For the sequence TGCGAAAGGA, the switch fluorescence ratio amounted to 1.01 ± 0.016.

On to TCGCGTTGTG, for which the switch fluorescence ratio is 1.02 ± 0.034. The same measure for GTTTCTTTGT: 0.986 ± 0.049; for TGGCTTAAAC: 1.18 ± 0.28; for TGAGAGAAGG: 1.01 ± 0.014. The same measure for AAAGCTGCCA: 1.004 ± 0.0056; for ACGATTAGGG: 0.996 ± 0.08; for TGCAGGGAGG: 1.02 ± 0.0064.

Turning to AATCGAGTGG, the switch fluorescence ratio amounted to 0.969 ± 0.06. The same measure for GGAATCTGTA: 0.949 ± 0.022. Turning to CTACTTTAGA, the switch fluorescence ratio turned out to be 0.993 ± 0.036.

On to TTCGTTTTTC, for which the switch fluorescence ratio was determined as 0.956 ± 0.035. In the case of TATATGAGAT, the switch fluorescence ratio was 1.01 ± 0.017. The same measure for ACCTTTTGTG: 0.9903 ± 0.0046; for AGTGGGTAAG: 0.9869 ± 0.0085; for CCATTCTAGA: 1.012 ± 0.0013. The same measure for CATCGCGGAC: 3.88 ± 0.45.

As to AGGACGGGA, the switch fluorescence ratio turned out to be 1.03 ± 0.035.

Consider CGTATTTTTA, for which the switch fluorescence ratio was found to be 1 ± 0.089.

Consider CATCTGTGCG, for which the switch fluorescence ratio amounted to 1.02 ± 0.016.

As for TTTTTATTG, the switch fluorescence ratio stood at 1.02 ± 0.018.
